Laboratory results as given in patent publication US8465945B2, “Method for production and use of mite group 1 proteins” (Merck Patent GmbH, priority 1999, dated 2013).

How the values were obtained:
[1] = system: IgE from mite-allergic or normal human sera; assay: ELISA, binding of IgE from human sera to coated Der f 1 proteins or mite extracts, detected with FcεR1α-biotin
[2] = system: IgE from mite-allergic dog sera; assay: ELISA, binding of IgE from dog sera to coated Der f 1 proteins or mite extracts, detected with FcεR1α-biotin
Protocol: Native or recombinant Der f 1 proteins in 100 μl CBC buffer (50 mM sodium carbonate, pH 9.6) were coated onto wells (100 ng per well) of Immulon II microtiter plates (available from Dynex Technologies, Chantilly, Va.) by incubation at 4° C., covered, overnight. Excess fluid was removed and wells were blocked with 200 μl Assay Buffer (4% fetal calf serum (available from Summit Laboratories, Fort Collins, Colo.) in phosphate buffered saline (PBS, recipe in Sambrook, ibid.), plus 0.05% Tween-20 (available from Sigma, St. Louis, Mo.)) for one hour at room temperature. Plates were then washed for 4 cycles on an automatic plate washer (Ultrawash, available from Dynatech Laboratories) using PBS with 0.05% Tween-20. […] Control wells were treated identically except that no serum was added. Plates were then washed as described above. Biotinylated human IgE receptor alpha chain (FcεR1α-biotin) (100 μl of 1.3 ng/ml) prepared as described in U.S. Pat. No. 5,945,294, ibid., was added and incubated for one hour at room temperature. After this incubation, plates were washed as described above. Streptavidin-horseradish peroxidase conjugate (0.5 mg/ml, available from KPL Labs, Gaithersburg, Md.) was added at a 1:5000 dilution in Assay Buffer for one hour at room temperature, after which plates were washed as described above. TMB Peroxidase substrate system, 2 part (available from KPL Labs, #0-76-00), added at 100 μl per well, was used according to the manufacturer's directions. The color reaction was allowed to proceed until good color development was reached (about 10-15 min); then the reaction was stopped with 100 μl per well of 1 M phosphoric acid. Bound IgE was determined by measuring absorbance (Optical Density, or OD) at 450 nm (nanometers) using an ELISA plate reader (such as Spectramax”, Molecular Devices, Sunnyvale, Calif.). Background OD readings in the control wells were subtracted from all numbers. Results are reported in Tables 1, 2 and 3 as OD multiplied by 1000. OD numbers greater than 100 are considered to be positive for a reaction with IgE. P. pastoris-expressed proteins are denoted in the Tables as Pichia expressed proteins.

[3] = system: anti-Der f 1 MAb 6A8 (capture) and anti-Der f 1 MAb 4C1 (detection); assay: Monoclonal Capture ELISA; format: binding
Protocol: (§1) Assays were carried out as follows. A microtiter plate as described in Example 5 was coated overnight at 4° C. with 100 ng/well of anti-Der f 1 protein monoclonal antibody 6A8, denoted herein as anti-Der f 1 MAb 6A8, provided by Dr. Martin Chapman. The plate was washed in the manner described above. The following proteins were then added to wells, having been diluted in Assay Buffer in a 2-fold dilution series, from 0.75 to 50 ng/well: Heska native Derf1, P. pastoris-expressed PDerf1303b, and E. coli-expressed PDerf1303c. After incubation for 1 hour at room temperature, plates were washed as described in Example 5. Then 100 μl per well of a 1:1000 dilution in Assay Buffer of biotinylated anti-Der f 1 monoclonal antibody 4C1, also denoted anti-Der f 1 MAb 4C1, provided by Dr. Martin Chapman, was added for 1 hour at room temperature. Plates were washed, streptavidin-HRP conjugate was added, and plates were developed as described in Example 5.

[4] = system: IgE from pooled mite-allergic human sera; assay: Monoclonal Capture ELISA (Example 8B, Table 7); format: binding
Protocol: as §1
B. The Der f 1 proteins described in Example 8B were reacted as described in Example 6 with a pool of serum samples collected from 16 mite-allergic human patients.

B1: Heska native Derf1: Native purified Der f 1 protein, purified as described in U.S. Ser. No. 09/292,225 (protein)
chain: TSACRINSVNVPSELDLRSLRTVTPIRMQGGCGSCWAFSGVAATESAYLAYRNTSLDLSEQELVDCASQHGCHGDTIPRGIEYIQQNGVVEERSYPYVAREQRCRRPNSQHYGISNYCQIYPPDVKQIREALTQTHTAIAVIIGIKDLRAFQHYDGRTIIQHDNGYQPNYHAVNIVGYGSTQGDDYWIVRNSWDTTWGDSGYGYFQAGNNLMMIEQYPYVVIM
- OD, bound IgE ([1]; Assay Number 1, serum human 1916): 51 OD multiplied by 1000
- OD, bound IgE ([1]; Assay Number 1, serum human3848): 3123 OD multiplied by 1000
- OD, bound IgE ([1]; Assay Number 1, serum human 3958): 3368 OD multiplied by 1000
- OD, bound IgE ([1]; Assay Number 1, serum human 3960): 2279 OD multiplied by 1000
- OD, bound IgE ([1]; Assay Number 1, serum human 3961): 1479 OD multiplied by 1000
- OD, bound IgE ([1]; Assay Number 1, serum human 3987): 3741 OD multiplied by 1000
- OD, bound IgE ([1]; Assay Number 1, serum human 4289): 777 OD multiplied by 1000
- OD, bound IgE ([1]; Assay Number 1, serum human 4467): 1302 OD multiplied by 1000
- OD, bound IgE ([1]; Assay Number 1, serum human 5207): 3051 OD multiplied by 1000
- OD, bound IgE ([1]; Assay Number 1, serum human pool): 1732 OD multiplied by 1000
- OD, bound IgE ([1]; Assay Number 2, serum Heska human B): 0 OD multiplied by 1000
- OD, bound IgE ([1]; Assay Number 2, serum Heska human C): 0 OD multiplied by 1000
- OD, bound IgE ([1]; Assay Number 2, serum Heska human D): 0 OD multiplied by 1000
- OD, bound IgE ([1]; Assay Number 2, serum Heska human E): 19 OD multiplied by 1000
- OD, bound IgE ([1]; Assay Number 2, serum Heska human F): 0 OD multiplied by 1000
- OD, bound IgE ([1]; Assay Number 2, serum Heska human G): 1 OD multiplied by 1000
- OD, bound IgE ([1]; Assay Number 2, serum Heska human H): 0 OD multiplied by 1000
- OD, bound IgE ([1]; Assay Number 2, serum Heska human I): 1 OD multiplied by 1000
- OD, bound IgE ([1]; Assay Number 2, serum Heska human J): 1 OD multiplied by 1000
- OD, bound IgE ([1]; Assay Number 2, serum Heska human K): 0 OD multiplied by 1000
- OD, bound IgE ([1]; Assay Number 2, serum Heska human L): 0 OD multiplied by 1000
- OD, bound IgE ([1]; Assay Number 2, serum Heska human M): 51 OD multiplied by 1000
- OD, bound IgE ([1]; Assay Number 2, serum Heska human N): 885 OD multiplied by 1000
- OD, bound IgE ([1]; Assay Number 2, serum Heska human O): 0 OD multiplied by 1000
- OD, bound IgE ([1]; Assay Number 2, serum Heska human P): 0 OD multiplied by 1000
- OD, bound IgE ([1]; Assay Number 2, serum Heska human Q): 0 OD multiplied by 1000
- OD, bound IgE ([1]; Assay Number 2, serum Heska human R): 1 OD multiplied by 1000
- OD, bound IgE ([1]; Assay Number 2, serum human 1916): 62 OD multiplied by 1000
- OD, bound IgE ([1]; Assay Number 2, serum human 3848): 2362 OD multiplied by 1000
- OD, bound IgE ([1]; Assay Number 2, serum human 3958): 2235 OD multiplied by 1000
- OD, bound IgE ([1]; Assay Number 2, serum human 3960): 1308 OD multiplied by 1000
- OD, bound IgE ([1]; Assay Number 2, serum human 3961): 784 OD multiplied by 1000
- OD, bound IgE ([1]; Assay Number 2, serum human 3987): 2664 OD multiplied by 1000
- OD, bound IgE ([1]; Assay Number 2, serum human 4289): 589 OD multiplied by 1000
- OD, bound IgE ([1]; Assay Number 2, serum human 4467): 1051 OD multiplied by 1000
- OD, bound IgE ([1]; Assay Number 2, serum human 5207): 2746 OD multiplied by 1000
- OD, bound IgE ([1]; Assay Number 2, serum human pool): 2599 OD multiplied by 1000
- OD, bound IgE ([2]; Assay Number 1, serum dog pool): 750 OD multiplied by 1000
- OD, bound IgE ([2]; Assay Number 1, serum dog-1): 3 OD multiplied by 1000
- OD, bound IgE ([2]; Assay Number 1, serum dog-2): 2245 OD multiplied by 1000
- OD, bound IgE ([2]; Assay Number 1, serum dog-3): 2839 OD multiplied by 1000
- OD, bound IgE ([2]; Assay Number 2, dog sera pool A 146): 449 OD multiplied by 1000
- OD, bound IgE ([2]; Assay Number 2, dog sera pool KS338): 101 OD multiplied by 1000
- OD, protein captured by MAb 6A8 and detected by MAb 4C1 ([3]; 0.75 ng protein per well): 1740 OD
- OD, protein captured by MAb 6A8 and detected by MAb 4C1 ([3]; 1.5 ng protein per well): 2043 OD
- OD, protein captured by MAb 6A8 and detected by MAb 4C1 ([3]; 2.5 ng protein per well): 2291 OD
- OD, protein captured by MAb 6A8 and detected by MAb 4C1 ([3]; 3.1 ng protein per well): 2219 OD
- OD, protein captured by MAb 6A8 and detected by MAb 4C1 ([3]; 6.25 ng protein per well): 2197 OD
- OD, protein captured by MAb 6A8 and detected by MAb 4C1 ([3]; 25 ng protein per well): 2142 OD
- OD, protein captured by MAb 6A8 and detected by MAb 4C1 ([3]; 50 ng protein per well): 2183 OD

B2: PDerf1303d: P. pastoris HCY288-expressed Der f 1 lacking N-glycosylation site, asparagine 133 replaced by glutamine (SEQ ID NO:38) (protein, listed as Dermatophagoides farinae)
chain: RPASIKTFEEFKKAFNKNYATVEEEEVARKNFLESLKYVEANKGAINHLSDLSLDEFKNRYLMSAEAFEQLKTQFDLNAETSACRINSVNVPSELDLRSLRTVTPIRMQGGCGSCWAFSGVAATESAYLAYRQTSLDLSEQELVDCASQHGCHGDTIPRGIEYIQQNGVVEERSYPYVAREQRCRRPNSQHYGISNYCQIYPPDVKQIREALTQTHTAIAVIIGIKDLRAFQHYDGRTIIQHDNGYQPNYHAVNIVGYGSTQGDDYWIVRNSWDTTWGDSGYGYFQAGNNLMMIEQYPYVVIM
- OD, bound IgE ([1]; Table 6, pool of sera from 16 mite-allergic human patients, 6.2 ng protein per well): 88 OD
- OD, bound IgE ([1]; Table 6, pool of sera from 16 mite-allergic human patients, 12.5 ng protein per well): 347 OD
- OD, bound IgE ([1]; Table 6, pool of sera from 16 mite-allergic human patients, 25 ng protein per well): 591 OD
- OD, bound IgE ([1]; Table 6, pool of sera from 16 mite-allergic human patients, 50 ng protein per well): 779 OD
- OD, bound IgE ([1]; Table 6, pool of sera from 16 mite-allergic human patients, 100 ng protein per well): 1097 OD
- OD, bound IgE ([1]; Table 6, pool of sera from 16 mite-allergic human patients, 200 ng protein per well): 1448 OD
- OD, Monoclonal Capture ELISA ([4]; 0.39 ng protein per well): 1380 OD
- OD, Monoclonal Capture ELISA ([4]; 0.78 ng protein per well): 1963 OD
- OD, Monoclonal Capture ELISA ([4]; 1.55 ng protein per well): 2626 OD
- OD, Monoclonal Capture ELISA ([4]; 3.1 ng protein per well): 2913 OD
- OD, Monoclonal Capture ELISA ([4]; 6.25 ng protein per well): 2991 OD
- OD, Monoclonal Capture ELISA ([4]; 12.5 ng protein per well): 3037 OD
- OD, Monoclonal Capture ELISA ([4]; 25 ng protein per well): 3007 OD
